Biological target: HLA-A*02:01 (Homo sapiens, UniProt P04439, D140Y/D185E/D98H/E176V/E277Q/G131W/G231S/I119V/I121R/I166T/I218V/L300P/L318F/N151K/N90K/P208A/P217A/Q86G/Q94H/R138H/R169H/T345S)
Test: MHC binding assay: UV-ligand exchange with beta2m ELISA (peptide exchange yield)
Conditions: binding to HLA-A*02:01, β2m ELISA
Text: Candidate peptides for T cell based therapies according to the present invention were further tested for their MHC binding capacity (affinity). The individual peptide-MHC complexes were produced by UV-ligand exchange, where a UV-sensitive peptide is cleaved upon UV-irradiation, and exchanged with the peptide of interest as analyzed. Only peptide candidates that can effectively bind and stabilize the peptide-receptive MHC molecules prevent dissociation of the MHC complexes. To determine the yield of the exchange reaction, an ELISA was performed based on the detection of the light chain (β2m) of stabilized MHC complexes. The assay was performed as generally described in Rodenko et al. (Rodenko et al., 2006).
96 well MAXISorp plates (NUNC) were coated over night with 2 ug/ml streptavidin in PBS at room temperature, washed 4× and blocked for 1 h at 37° C. in 2% BSA containing blocking buffer. Refolded HLA-A*02:01/MLA-001 monomers served as standards, covering the range of 15-500 ng/ml. Peptide-MHC monomers of the UV-exchange reaction were diluted 100 fold in blocking buffer. Samples were incubated for 1 h at 37° C., washed four times, incubated with 2 ug/ml HRP conjugated anti-β2m for 1 h at 37° C., washed again and detected with TMB solution that is stopped with […]. Absorption was measured at 450 nm. Candidate peptides that show a high exchange yield (preferably higher than 50%, most preferred higher than 75%) are generally preferred for a generation and production of antibodies or fragments thereof, and/or T cell receptors or fragments thereof, as they show sufficient avidity to the MHC molecules and prevent dissociation of the MHC complexes.

Substance: 181 (LLWAPTAQA; listed as Homo sapiens) [compound 181]
- Peptide exchange (MHC class I binding score, peptide exchange yield): +++ (= ≥50% = +++)

Substance: 261 (GLAALAVHL; listed as Homo sapiens) [compound 261]
- Peptide exchange (MHC class I binding score, peptide exchange yield): +++ (= ≥50% = +++)

Substance: 112 (ILAQDVAQL; listed as Homo sapiens) [compound 112]
- Peptide exchange (MHC class I binding score, peptide exchange yield): +++ (= ≥50% = +++)

Substance: 61 (ALYPKEITL; listed as Homo sapiens) [compound 61]
- Peptide exchange (MHC class I binding score, peptide exchange yield): +++ (= ≥50% = +++)

Substance: 31 (GLLETTGLLAT; listed as Homo sapiens) [compound 31]
- Peptide exchange (MHC class I binding score, peptide exchange yield): +++ (= ≥50% = +++)

Substance: 280 (HLWGHALFL; listed as Homo sapiens) [compound 280]
- Peptide exchange (MHC class I binding score, peptide exchange yield): +++ (= ≥50% = +++)

Substance: 98 (FVQEKIPEL; listed as Homo sapiens) [compound 98]
- Peptide exchange (MHC class I binding score, peptide exchange yield): +++ (= ≥50% = +++)

Substance: 122 (SIIDTELKV; listed as Homo sapiens) [compound 122]
- Peptide exchange (MHC class I binding score, peptide exchange yield): +++ (= ≥50% = +++)

Substance: 231 (LLDDIFIRL; listed as Homo sapiens) [compound 231]
- Peptide exchange (MHC class I binding score, peptide exchange yield): +++ (= ≥50% = +++)

Substance: 193 (ALFHMNILL; listed as Homo sapiens) [compound 193]
- Peptide exchange (MHC class I binding score, peptide exchange yield): +++ (= ≥50% = +++)

Substance: 36 (TVLQELINV; listed as Homo sapiens) [compound 36]
- Peptide exchange (MHC class I binding score, peptide exchange yield): +++ (= ≥50% = +++)

Substance: 24 (KVWSDVTPL; listed as Homo sapiens) [compound 24]
- Peptide exchange (MHC class I binding score, peptide exchange yield): +++ (= ≥50% = +++)

Substance: 248 (VLMQDSRLYL; listed as Homo sapiens) [compound 248]
- Peptide exchange (MHC class I binding score, peptide exchange yield): +++ (= ≥50% = +++)

Substance: 139 (IILENIQSL; listed as Homo sapiens) [compound 139]
- Peptide exchange (MHC class I binding score, peptide exchange yield): +++ (= ≥50% = +++)

Substance: 182 (GLQDGFQITV; listed as Homo sapiens) [compound 182]
- Peptide exchange (MHC class I binding score, peptide exchange yield): +++ (= ≥50% = +++)

Substance: 41 (IVTEIISEI; listed as Homo sapiens) [compound 41]
- Peptide exchange (MHC class I binding score, peptide exchange yield): +++ (= ≥50% = +++)

Substance: 210 (GLAGDNIYL; listed as Homo sapiens) [compound 210]
- Peptide exchange (MHC class I binding score, peptide exchange yield): +++ (= ≥50% = +++)

Substance: 11 (LLDPKTIFL; listed as Homo sapiens) [compound 11]
- Peptide exchange (MHC class I binding score, peptide exchange yield): +++ (= ≥50% = +++)

Substance: 251 (LLWGNLPEI; listed as Homo sapiens) [compound 251]
- Peptide exchange (MHC class I binding score, peptide exchange yield): +++ (= ≥50% = +++)

Substance: 207 (KLFETVEEL; listed as Homo sapiens) [compound 207]
- Peptide exchange (MHC class I binding score, peptide exchange yield): +++ (= ≥50% = +++)

Substance: 250 (LMQDSRLYL; listed as Homo sapiens) [compound 250]
- Peptide exchange (MHC class I binding score, peptide exchange yield): +++ (= ≥50% = +++)

Substance: 195 (VIIQNLPAL; listed as Homo sapiens) [compound 195]
- Peptide exchange (MHC class I binding score, peptide exchange yield): +++ (= ≥50% = +++)

Substance: 145 (ALEEKLENV; listed as Homo sapiens) [compound 145]
- Peptide exchange (MHC class I binding score, peptide exchange yield): +++ (= ≥50% = +++)

Substance: 285 (MLLDTVQKV; listed as Homo sapiens) [compound 285]
- Peptide exchange (MHC class I binding score, peptide exchange yield): +++ (= ≥50% = +++)

Substance: 278 (VLEDKVLSV; listed as Homo sapiens) [compound 278]
- Peptide exchange (MHC class I binding score, peptide exchange yield): +++ (= ≥50% = +++)

Substance: 223 (ALHPVQFYL; listed as Homo sapiens) [compound 223]
- Peptide exchange (MHC class I binding score, peptide exchange yield): +++ (= ≥50% = +++)

Substance: 249 (YLYQILQGI; listed as Homo sapiens) [compound 249]
- Peptide exchange (MHC class I binding score, peptide exchange yield): +++ (= ≥50% = +++)

Substance: 100 (ALQSFEFRV; listed as Homo sapiens) [compound 100]
- Peptide exchange (MHC class I binding score, peptide exchange yield): +++ (= ≥50% = +++)

Substance: 88 (LLLPLELSLA; listed as Homo sapiens) [compound 88]
- Peptide exchange (MHC class I binding score, peptide exchange yield): +++ (= ≥50% = +++)

Substance: 75 (ALLDGALQL; listed as Homo sapiens) [compound 75]
- Peptide exchange (MHC class I binding score, peptide exchange yield): +++ (= ≥50% = +++)

Substance: 140 (FLDSQITTV; listed as Homo sapiens) [compound 140]
- Peptide exchange (MHC class I binding score, peptide exchange yield): +++ (= ≥50% = +++)

Substance: 55 (HLFDKIIKI; listed as Homo sapiens) [compound 55]
- Peptide exchange (MHC class I binding score, peptide exchange yield): +++ (= ≥50% = +++)

Substance: 217 (LLWPSSVPA; listed as Homo sapiens) [compound 217]
- Peptide exchange (MHC class I binding score, peptide exchange yield): +++ (= ≥50% = +++)

Substance: 26 (VLDGKVAVV; listed as Homo sapiens) [compound 26]
- Peptide exchange (MHC class I binding score, peptide exchange yield): +++ (= ≥50% = +++)

Substance: 177 (ALINVLNAL; listed as Homo sapiens) [compound 177]
- Peptide exchange (MHC class I binding score, peptide exchange yield): +++ (= ≥50% = +++)

Substance: 230 (KLLNMIFSI; listed as Homo sapiens) [compound 230]
- Peptide exchange (MHC class I binding score, peptide exchange yield): +++ (= ≥50% = +++)

Substance: 169 (ALADLSVAV; listed as Homo sapiens) [compound 169]
- Peptide exchange (MHC class I binding score, peptide exchange yield): +++ (= ≥50% = +++)

Substance: 109 (ILGSFELQL; listed as Homo sapiens) [compound 109]
- Peptide exchange (MHC class I binding score, peptide exchange yield): +++ (= ≥50% = +++)

Substance: 45 (FLPVSVVYV; listed as Homo sapiens) [compound 45]
- Peptide exchange (MHC class I binding score, peptide exchange yield): +++ (= ≥50% = +++)

Substance: 125 (AALEVLAEV; listed as Homo sapiens) [compound 125]
- Peptide exchange (MHC class I binding score, peptide exchange yield): +++ (= ≥50% = +++)

Substance: 283 (ALSELLQQV; listed as Homo sapiens) [compound 283]
- Peptide exchange (MHC class I binding score, peptide exchange yield): +++ (= ≥50% = +++)

Substance: 253 (KLLAVIHEL; listed as Homo sapiens) [compound 253]
- Peptide exchange (MHC class I binding score, peptide exchange yield): +++ (= ≥50% = +++)

Substance: 58 (HLLGEGAFAQV; listed as Homo sapiens) [compound 58]
- Peptide exchange (MHC class I binding score, peptide exchange yield): +++ (= ≥50% = +++)

Substance: 59 (ALADGIKSFLL; listed as Homo sapiens) [compound 59]
- Peptide exchange (MHC class I binding score, peptide exchange yield): +++ (= ≥50% = +++)

Substance: 131 (SLYPHFTLL; listed as Homo sapiens) [compound 131]
- Peptide exchange (MHC class I binding score, peptide exchange yield): +++ (= ≥50% = +++)

Substance: 237 (ALLEQTGDMSL; listed as Homo sapiens) [compound 237]
- Peptide exchange (MHC class I binding score, peptide exchange yield): +++ (= ≥50% = +++)

From patent publication US11332512B2, “Peptides and combination of peptides for use in immunotherapy against various tumors” (Immatics Biotechnologies GmbH, priority 2015, dated 2022)
